One substance from US20040052799A1, “Nucleic acid and amino acid sequences relating to Helicobacter pylori for diagnostics and therapeutics” (Astra Aktiebolag, priority 1996, published 2004) can be followed below.

The test system of this data set is N[C@@H](CC=O)C(=O)O. In words: purified protein, by the assay type. As to conditions: other: pH 8.0.

For the substance H. pylori Asd (Helicobacter pylori J99), the Michaelis-Menten constant (Km) was 54 µM.

By Km is commonly meant the substrate concentration at which the rate is half of its maximum.
